From patent US20150065436A1, “INHIBITING INTERACTION BETWEEN HIF-1ALPHA AND p300/CBP WITH HYDROGEN BOND SURROGATE-BASED HELICES” (UNIVERSITY OF SOUTHERN CALIFORNIA, priority 2013, published 2015)
Each block holds one binder with its values, some of them ahead of it. code X = not defined here

Key:
[1] = target: coactivator protein p300 (or the homologous CREB binding protein, CBP) (human), Q09472; experiment: cell-based or functional assay
[2] = target: p300-CH1 (cysteine-histidine rich 1 domain of human coactivator protein p300, amino acid residues 323-423) (human), Q09472; experiment: tryptophan (Trp403) fluorescence spectroscopy, peptide titrated into 1 µM 15N-labeled p300-CH1
Chain of p300-CH1 (cysteine-histidine rich 1 domain of human coactivator protein p300, amino acid residues 323-423) (human), Q09472 (Q09472 323-423 limits assumed): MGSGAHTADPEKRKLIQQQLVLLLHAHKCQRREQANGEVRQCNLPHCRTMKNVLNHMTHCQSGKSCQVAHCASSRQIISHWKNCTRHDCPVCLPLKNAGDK

[3] = target: coactivator protein p300 (or the homologous CREB binding protein, CBP) (human) (UniProt Q09472); experiment: cell-based or functional assay
Chain of coactivator protein p300 (or the homologous CREB binding protein, CBP) (human) (Q09472 2-2414 limits assumed): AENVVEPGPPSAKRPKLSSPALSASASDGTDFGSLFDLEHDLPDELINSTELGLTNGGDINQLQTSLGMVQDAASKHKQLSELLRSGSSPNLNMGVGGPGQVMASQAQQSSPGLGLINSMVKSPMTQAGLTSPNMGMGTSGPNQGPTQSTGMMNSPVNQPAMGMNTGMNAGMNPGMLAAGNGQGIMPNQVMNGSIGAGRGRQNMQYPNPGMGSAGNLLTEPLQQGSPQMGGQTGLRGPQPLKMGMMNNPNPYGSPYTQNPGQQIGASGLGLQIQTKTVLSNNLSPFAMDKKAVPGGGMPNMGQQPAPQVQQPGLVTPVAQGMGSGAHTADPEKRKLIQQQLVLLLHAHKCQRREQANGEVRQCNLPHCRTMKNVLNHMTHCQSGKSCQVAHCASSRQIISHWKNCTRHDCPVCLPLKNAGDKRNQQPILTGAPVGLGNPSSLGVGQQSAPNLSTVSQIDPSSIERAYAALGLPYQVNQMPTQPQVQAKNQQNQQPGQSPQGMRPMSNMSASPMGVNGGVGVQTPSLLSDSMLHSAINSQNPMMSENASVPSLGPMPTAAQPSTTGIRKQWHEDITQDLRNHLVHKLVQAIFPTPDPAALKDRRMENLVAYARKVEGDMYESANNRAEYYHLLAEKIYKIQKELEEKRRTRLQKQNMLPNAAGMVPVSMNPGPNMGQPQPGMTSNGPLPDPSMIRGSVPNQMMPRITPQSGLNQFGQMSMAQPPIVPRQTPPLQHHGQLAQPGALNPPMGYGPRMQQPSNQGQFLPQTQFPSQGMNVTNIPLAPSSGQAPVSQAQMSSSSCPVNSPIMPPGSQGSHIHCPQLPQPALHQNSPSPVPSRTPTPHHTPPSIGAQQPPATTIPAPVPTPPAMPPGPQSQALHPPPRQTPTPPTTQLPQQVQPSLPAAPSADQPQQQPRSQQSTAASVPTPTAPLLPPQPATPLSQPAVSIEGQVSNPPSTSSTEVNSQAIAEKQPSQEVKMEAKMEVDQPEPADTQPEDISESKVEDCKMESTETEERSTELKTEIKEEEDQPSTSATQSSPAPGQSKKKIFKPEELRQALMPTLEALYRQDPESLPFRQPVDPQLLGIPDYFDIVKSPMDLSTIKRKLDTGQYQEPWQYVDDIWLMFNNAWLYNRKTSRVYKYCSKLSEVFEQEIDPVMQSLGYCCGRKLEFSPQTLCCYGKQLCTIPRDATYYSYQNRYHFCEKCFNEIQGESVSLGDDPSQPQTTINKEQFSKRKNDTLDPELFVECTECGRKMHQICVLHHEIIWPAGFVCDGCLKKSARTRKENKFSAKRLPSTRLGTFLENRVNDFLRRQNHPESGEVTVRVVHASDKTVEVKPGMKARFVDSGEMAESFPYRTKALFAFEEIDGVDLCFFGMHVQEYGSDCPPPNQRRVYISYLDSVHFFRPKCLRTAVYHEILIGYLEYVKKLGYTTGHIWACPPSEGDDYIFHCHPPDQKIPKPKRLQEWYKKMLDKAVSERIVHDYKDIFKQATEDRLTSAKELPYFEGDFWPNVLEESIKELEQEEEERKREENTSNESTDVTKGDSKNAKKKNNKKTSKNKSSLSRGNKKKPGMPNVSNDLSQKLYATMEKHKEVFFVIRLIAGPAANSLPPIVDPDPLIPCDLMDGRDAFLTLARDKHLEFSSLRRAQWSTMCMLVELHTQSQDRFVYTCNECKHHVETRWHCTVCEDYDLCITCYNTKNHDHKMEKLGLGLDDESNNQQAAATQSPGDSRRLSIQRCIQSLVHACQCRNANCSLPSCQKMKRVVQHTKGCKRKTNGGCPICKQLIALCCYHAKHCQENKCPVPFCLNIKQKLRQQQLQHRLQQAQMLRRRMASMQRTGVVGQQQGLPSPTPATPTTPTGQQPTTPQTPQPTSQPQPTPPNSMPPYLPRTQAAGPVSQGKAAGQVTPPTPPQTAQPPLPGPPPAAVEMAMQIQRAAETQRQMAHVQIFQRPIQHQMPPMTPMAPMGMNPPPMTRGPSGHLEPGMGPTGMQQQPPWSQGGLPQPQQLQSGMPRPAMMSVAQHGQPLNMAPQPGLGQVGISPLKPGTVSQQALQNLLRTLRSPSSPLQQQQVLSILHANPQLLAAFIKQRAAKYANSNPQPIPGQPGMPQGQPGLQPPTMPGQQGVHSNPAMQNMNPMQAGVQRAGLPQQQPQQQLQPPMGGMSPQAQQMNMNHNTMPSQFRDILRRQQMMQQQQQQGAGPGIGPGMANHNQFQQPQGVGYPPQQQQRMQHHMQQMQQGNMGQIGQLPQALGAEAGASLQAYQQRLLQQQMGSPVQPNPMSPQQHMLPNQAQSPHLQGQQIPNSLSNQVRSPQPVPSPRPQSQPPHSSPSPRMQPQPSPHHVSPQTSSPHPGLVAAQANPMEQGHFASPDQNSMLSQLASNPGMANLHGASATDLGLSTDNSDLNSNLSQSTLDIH

[4] = target: p300-CH1 (cysteine-histidine rich 1 domain of human coactivator protein p300, amino acid residues 323-423) (human) (UniProt Q09472); experiment: tryptophan fluorescence spectroscopy; reference peptide 3
Chain of p300-CH1 (cysteine-histidine rich 1 domain of human coactivator protein p300, amino acid residues 323-423) (human) (Q09472 323-423 limits assumed): as the sequence (Q09472 323-423 limits assumed) above

[5] = target: p300-CH1 (cysteine-histidine rich 1 domain of human coactivator protein p300, amino acid residues 323-423) (human) (UniProt Q09472); experiment: tryptophan (Trp403) fluorescence spectroscopy, peptide titrated into 1 µM 15N-labeled p300-CH1
[6] = target: p300-CH1 (cysteine-histidine rich 1 domain of human coactivator protein p300, amino acid residues 323-423) (human) (UniProt Q09472); experiment: fluorescence polarization competition; HBS 1 added to preformed complex of 300 nM p300-CH1 and 15 nM Flu-HIF C-TAD
[7] = target: p300-CH1 (cysteine-histidine rich 1 domain of human coactivator protein p300, amino acid residues 323-423) (human) (UniProt Q09472); experiment: fluorescence polarization competition: HBS 1 added to the preformed complex of p300-CH1 (300 nM) and Flu-HIF C-TAD (15 nM); displaced ligand: fluorescein-labeled HIF-1α C-TAD786-826

Chain of coactivator protein p300 (or the homologous CREB binding protein, CBP) (human), Q09472 (Q09472 2-2414 limits assumed): as the sequence (Q09472 2-2414 limits assumed) above

downregulation of SLC2A1 and LOX expression, qRT-PCR, hypoxic HeLa cells [1]: 25%
Kd [2]: 6.06 µM
Binder: ELARALDQ (modifications not checked) [Peptide 3]

expression levels of VEGF, qRT-PCR, hypoxic HeLa cells (% reduction at 10 µM) [3]: 50
expression levels of VEGF, qRT-PCR, hypoxic HeLa cells (% reduction at 50 µM) [3]: > 60
inhibition of SLC2A1 (GLUT1) expression, qRT-PCR, hypoxic HeLa cells [3]: 50 to 60%
luciferase expression, HRE-luciferase reporter in MDA-MB-231-HRE-Luc cells under hypoxia (% reduction at 50 µM) [3]: 25
fold increase in binding affinity over peptide 3 [4]: 9 fold
Kd [5]: 690 nM
Ki [6]: 3.5 µM
IC50 (read off the curve) [7]: 10 µM
B1: HBS 1 (peptide)
chain: {code X}-ELARALDQ-NH2
modifications: not fully specified (residue 3, bridges); reading uncertain; also: hydrogen bond surrogate constraint, places not given here
